Biological target: the molecule itself
Experiment: crystal structure

B1: vimentin coil 1B (residues 153–238) (domain or fragment)
chain: not shown
stoichiometry N: 8
